Assay results published in patent EP3366704A1 (Affimed GmbH, dated 2018).
One block for each binder: values may come before it.

Key:
[1] = target: T1, MMP1-003 peptide/HLA-A2 complex (on MMP1-003 peptide-pulsed T2 cells or HLA-A2+/MMP1+ tumor cells) (human); experiment: cell-based or functional assay
[2] = target: T1, MMP1-003 peptide/HLA-A2 complex (on …); experiment: cell-based or functional assay; remark: listed apart in the source
[3] = target: T2, CD16A (FcgammaRIIIA) on primary human NK-cells (human, UniProt P08637 17-254); experiment: flow cytometry on primary human NK-cells, on ice, one-site binding fit, mean of two experiments
T2 construct: whole, on cells; also called CD16^+ NK-cells; CD16A^+ cells
T2 sequence (P08637 17-254): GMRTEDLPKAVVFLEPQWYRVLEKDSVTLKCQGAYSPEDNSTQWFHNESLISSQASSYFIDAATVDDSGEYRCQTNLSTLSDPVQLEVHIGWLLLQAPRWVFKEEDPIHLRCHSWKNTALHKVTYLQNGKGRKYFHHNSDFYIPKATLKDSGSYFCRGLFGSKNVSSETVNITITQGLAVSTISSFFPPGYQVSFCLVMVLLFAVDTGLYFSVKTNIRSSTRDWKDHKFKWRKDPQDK

[4] = target: T1, MMP1-003 peptide/HLA-A2 complex (on …); experiment: cell-based or functional assay; remark: listed apart in the source
[5] = target: T3, HLA-A2 on non-pulsed T2 cells (no peptide added) (human); experiment: flow cytometry on non-pulsed T2 cells, mean of two experiments
T3 construct: whole, on cells

[6] = target: T1, MMP1-003 peptide/HLA-A2 complex (on …); experiment: cell-based or functional assay; remark: listed apart in the source
[7] = target: T4, human CD3 (on Jurkat cells or primary human T-cells) (human, UniProt P07766 23-207); experiment: flow cytometry on human CD3+ primary T-cells, on ice, one-site binding fit, mean of 2 experiments
T4 construct: whole, on cells; CD3 is a complex of several chains; also called Human CD3^+ Jurkat; Human CD3^+ primary T-cells
T4 sequence (P07766 23-207): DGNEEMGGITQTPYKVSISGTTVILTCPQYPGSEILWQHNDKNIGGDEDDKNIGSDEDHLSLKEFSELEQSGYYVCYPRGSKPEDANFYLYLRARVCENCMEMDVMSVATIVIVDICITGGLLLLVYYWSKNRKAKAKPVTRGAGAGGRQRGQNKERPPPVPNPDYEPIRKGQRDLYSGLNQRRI

[8] = target: T1, MMP1-003 peptide/HLA-A2 complex (on …); experiment: flow cytometry on MMP1-003 peptide-pulsed T2 cells
[9] = target: T5, cynomolgus CD3 (on HSC-F cells) (cynomolgus, UniProt Q95LI5 22-198); experiment: flow cytometry on cynomolgus CD3+ HSC-F cells, on ice, one-site binding fit, mean of 2 experiments
T5 construct: whole, on cells; CD3 is a complex of several chains; also called Cyno CD3^+ HSC-F
T5 sequence (Q95LI5 22-198): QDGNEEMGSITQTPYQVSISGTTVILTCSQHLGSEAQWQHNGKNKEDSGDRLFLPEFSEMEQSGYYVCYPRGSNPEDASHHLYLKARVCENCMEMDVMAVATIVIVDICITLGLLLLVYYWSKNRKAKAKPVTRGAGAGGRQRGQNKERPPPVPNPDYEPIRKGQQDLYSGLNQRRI

[10] = target: T4, human CD3 (on Jurkat cells or primary …); experiment: flow cytometry on human CD3+ Jurkat cells, on ice, one-site binding fit, mean of 2 experiments
[11] = target: T1, MMP1-003 peptide/HLA-A2 complex (on …); experiment: flow cytometry on MMP1-003 peptide-pulsed T2 cells, mean of two experiments
[12] = target: T5, cynomolgus CD3 (on HSC-F cells); experiment: flow cytometry on cynomolgus CD3+ HSC-F cells, on ice
[13] = target: T4, human CD3 (on Jurkat cells or primary …); experiment: flow cytometry on human CD3+ Jurkat cells, on ice

B1: TandAbCD16A 3 (anti-HLA-A2^MMP1-003/CD16A tandem diabody, target domain A02, variant 4) (bispecific antibody)
chain: EVQLVESGGGVVQPGRSLRLSCAASGFTFSSYAMHWVRQAPGKGLEWVAVISYDGSNKYYADSVKGRFTISRDNSKNTLYLQMNSLRTEDTAVYYCARDGGYYHYGLDVWGQGTTVTVSSGGSGGSGGSSYVLTQPSSVSVAPGQTATISCGGHNIGSKNVHWYQQRPGQSPVLVIYQDNKRPSGIPERFSGSNSGNTATLTISGTQAMDEADYYCQVWDNYSVLFGGGTKLTVLGGSGGSQVQLVQSGAEVKKPGESLKVSCKASGYTFTSYYMHWVRQAPGQGLEWMGAIEPMYGSTSYAQKFQGRVTMTRDTSTSTVYMELSSLRSEDTAVYYCARGSAYYYDFADYWGQGTLVTVSSGGSGGSGGSSYELTQPPSVSVSPGQTASITCSGDKLGDKYASWYQRKPGQSPVLLIYQDAKRPSGIPERFSGSNSGNTATLTISGTQAMDEADYYCQAWDSSTGVFGGGTKLTVLAAAGSHHHHHH
notes: Non-covalent homodimer; Variant 4: VH(A02)-L1-VL(CD16A)-L2-VH(CD16A)-L3-VL(A02); C-terminal 6xHis tag
- Mean EC50 of target cell lysis, 4 h calcein-release assay, B-CPAP (HLA-A2+/MMP1+), human NK-cells E:T 5:1 [1]: 0.996 nM
- Mean EC50 of target cell lysis, 4 h calcein-release assay, SW-982 (HLA-A2+/MMP1+), human NK-cells E:T 5:1 [1]: 1.16 nM
- Mean EC50 of target cell lysis, 4 h calcein-release assay, MMP1-003-pulsed T2 cells, human NK-cells E:T 5:1 [2]: 0.0057 nM
- Kd [3]: 3.1 nM

B2: TandAbCD3 2 (anti-HLA-A2^MMP1-003/CD3 tandem diabody, target domain A02) (bispecific antibody)
chain: DIQMTQSPSSLSASVGDRVTITCRSSTGAVTTSNYANWVQQKPGKAPKALIGGTNKRAPGVPSRFSGSLIGDKATLTISSLQPEDFATYYCALWYSNLWVFGQGTKVEIKGGSGGSEVQLVESGGGVVQPGRSLRLSCAASGFTFSSYAMHWVRQAPGKGLEWVAVISYDGSNKYYADSVKGRFTISRDNSKNTLYLQMNSLRTEDTAVYYCARDGGYYHYGLDVWGQGTTVTVSSGGSGSYELTQPPSVSVSPGQTASITCSGDKLGDKYASWYQRKPGQSPVLLIYQDAKRPSGIPERFSGSNSGNTATLTISGTQAMDEADYYCQAWDSSTGVFGGGTKLTVLGGSGGSEVQLVESGGGLVQPGGSLRLSCAASGFTFSTYAMNWVRQAPGKGLEWVGRIRSKYNNYATYYADSVKDRFTISRDDSKNSLYLQMNSLKTEDTAVYYCARHGNFGNSYVSYFAYWGQGTLVTVSSAAAGSHHHHHH
notes: Non-covalent homodimer; C-terminal 6xHis tag; also called TandAbCD3 2 T717; T717
- Mean EC50 of target cell lysis, 4 h calcein-release assay, B-CPAP (HLA-A2+/MMP1+), human T-cells E:T 25:1 [4]: 0.0669 nM
- Mean EC50 of target cell lysis, 4 h calcein-release assay, SW-982 (HLA-A2+/MMP1+), human T-cells E:T 25:1 [4]: 0.0302 nM
- Kd [5]: > 500 nM
- EC50 of target cell lysis, 4 h calcein-release cytotoxicity assay, MMP1-003-pulsed T2 cells, human T-cells E:T 25:1 [6]: 0.0009 nM
- Kd [7]: 2.2 nM
- fold higher apparent affinity than the corresponding scFv A02 [8]: > 2 fold
- Kd [9]: 2.8 nM
- Kd [10]: 3.6 nM
- Kd [11]: 39.2 nM

B3: scFv A02 (anti-HLA-A2^MMP1-003 single chain Fv) (scFv)
scFv: EVQLVESGGGVVQPGRSLRLSCAASGFTFSSYAMHWVRQAPGKGLEWVAVISYDGSNKYYADSVKGRFTISRDNSKNTLYLQMNSLRTEDTAVYYCARDGGYYHYGLDVWGQGTTVTVSSGGSGGSGGSGGSGGSGGSSYELTQPPSVSVSPGQTASITCSGDKLGDKYASWYQRKPGQSPVLLIYQDAKRPSGIPERFSGSNSGNTATLTISGTQAMDEADYYCQAWDSSTGVFGGGTKLTVLAAAGSEQKLISEEDLNSHHHHHH
notes: also called A02 scFv; scFv_203.S
- binding result [12]: no binding
- binding result [13]: no binding
- Kd [11]: 108 nM

B4: TandAbCD3 1 (anti-HLA-A2^MMP1-003/CD3 tandem diabody, target domain B05) (bispecific antibody)
chain: DIQMTQSPSSLSASVGDRVTITCRSSTGAVTTSNYANWVQQKPGKAPKALIGGTNKRAPGVPSRFSGSLIGDKATLTISSLQPEDFATYYCALWYSNLWVFGQGTKVEIKGGSGGSQVQLVQSGAEAKKPGESLRISCRASGYMFSTFWIGWVRQMPGKGLEWVASIYPGDSNTIYSPSFQGQVTISADKSINTTYLQWSGLKASDTATYYCAKIRDGYSYDAFDLWGQGTMVTVSSGGSGQSALTQPASVSGSPGQSITISCTGTSSDVGGYNYVSWYQQHPGKAPKLMIYDVSNRPSGVSNRFSGSKSGNTASLTISGLQAEDEADYYCSSYTSSSTLAYVFGTGTKLTVLGGSGGSEVQLVESGGGLVQPGGSLRLSCAASGFTFSTYAMNWVRQAPGKGLEWVGRIRSKYNNYATYYADSVKDRFTISRDDSKNSLYLQMNSLKTEDTAVYYCARHGNFGNSYVSYFAYWGQGTLVTVSSAAAGSHHHHHH
notes: Non-covalent homodimer of two identical polypeptides; Constructs carry a C-terminal 6xHis tag and an N-terminal signal peptide; also called TandAbCD3 1 T714; TandAb 1
- Mean EC50 of target cell lysis, 4 h calcein-release assay, B-CPAP (HLA-A2+/MMP1+), human T-cells E:T 25:1 [4]: 0.237 nM
- Mean EC50 of target cell lysis, 4 h calcein-release assay, SW-982 (HLA-A2+/MMP1+), human T-cells E:T 25:1 [4]: 0.156 nM
- EC50 of target cell lysis, 4 h calcein-release cytotoxicity assay, MMP1-003-pulsed T2 cells, human T-cells E:T 25:1 [6]: 0.0007 nM
- Kd [7]: 1.7 nM
- fold higher apparent affinity relative to the B05 single chain Fv (scFv) [8]: > 200 fold
- Kd [9]: 1.3 nM
- Kd [10]: 1.1 nM
- Kd [11]: 3 nM

B8: TandAbCD16A 4 (anti-HLA-A2^MMP1-003/CD16A tandem diabody, target domain B05, variant 4) (bispecific antibody)
chain: QVQLVQSGAEAKKPGESLRISCRASGYMFSTFWIGWVRQMPGKGLEWVASIYPGDSNTIYSPSFQGQVTISADKSINTTYLQWSGLKASDTATYYCAKIRDGYSYDAFDLWGQGTMVTVSSGGSGGSGGSSYVLTQPSSVSVAPGQTATISCGGHNIGSKNVHWYQQRPGQSPVLVIYQDNKRPSGIPERFSGSNSGNTATLTISGTQAMDEADYYCQVWDNYSVLFGGGTKLTVLGGSGGSQVQLVQSGAEVKKPGESLKVSCKASGYTFTSYYMHWVRQAPGQGLEWMGAIEPMYGSTSYAQKFQGRVTMTRDTSTSTVYMELSSLRSEDTAVYYCARGSAYYYDFADYWGQGTLVTVSSGGSGGSGGSQSALTQPASVSGSPGQSITISCTGTSSDVGGYNYVSWYQQHPGKAPKLMIYDVSNRPSGVSNRFSGSKSGNTASLTISGLQAEDEADYYCSSYTSSSTLAYVFGTGTKLTVLAAAGSHHHHHH
notes: Non-covalent homodimer; C-terminal 6xHis tag
- Mean EC50 of target cell lysis, 4 h calcein-release assay, B-CPAP (HLA-A2+/MMP1+), human NK-cells E:T 5:1 [1]: 4.8 nM
- Mean EC50 of target cell lysis, 4 h calcein-release assay, SW-982 (HLA-A2+/MMP1+), human NK-cells E:T 5:1 [1]: 4.67 nM
- Mean EC50 of target cell lysis, 4 h calcein-release assay, MMP1-003-pulsed T2 cells, human NK-cells E:T 5:1 [2]: 0.0088 nM
- Kd [3]: 5.3 nM

Further lines, results first:

- Mean EC50 of target cell lysis, 4 h calcein-release assay, B-CPAP (HLA-A2+/MMP1+), human NK-cells E:T 5:1 [1]: 1.69 nM
- Mean EC50 of target cell lysis, 4 h calcein-release assay, SW-982 (HLA-A2+/MMP1+), human NK-cells E:T 5:1 [1]: 2.86 nM
- Mean EC50 of target cell lysis, 4 h calcein-release assay, MMP1-003-pulsed T2 cells, human NK-cells E:T 5:1 [2]: 0.0209 nM
- Kd [3]: 3.7 nM
B5: TandAbCD16A 2 (anti-HLA-A2^MMP1-003/CD16A tandem diabody, target domain B05, variant 2) (bispecific antibody)
chain: QVQLVQSGAEVKKPGESLKVSCKASGYTFTSYYMHWVRQAPGQGLEWMGAIEPMYGSTSYAQKFQGRVTMTRDTSTSTVYMELSSLRSEDTAVYYCARGSAYYYDFADYWGQGTLVTVSSGGSGGSGGSQSALTQPASVSGSPGQSITISCTGTSSDVGGYNYVSWYQQHPGKAPKLMIYDVSNRPSGVSNRFSGSKSGNTASLTISGLQAEDEADYYCSSYTSSSTLAYVFGTGTKLTVLGGSGGSQVQLVQSGAEAKKPGESLRISCRASGYMFSTFWIGWVRQMPGKGLEWVASIYPGDSNTIYSPSFQGQVTISADKSINTTYLQWSGLKASDTATYYCAKIRDGYSYDAFDLWGQGTMVTVSSGGSGGSGGSSYVLTQPSSVSVAPGQTATISCGGHNIGSKNVHWYQQRPGQSPVLVIYQDNKRPSGIPERFSGSNSGNTATLTISGTQAMDEADYYCQVWDNYSVLFGGGTKLTVLAAAGSHHHHHH
notes: as for B8

- Mean EC50 of target cell lysis, 4 h calcein-release assay, B-CPAP (HLA-A2+/MMP1+), human NK-cells E:T 5:1 [1]: 2.61 nM
- Mean EC50 of target cell lysis, 4 h calcein-release assay, SW-982 (HLA-A2+/MMP1+), human NK-cells E:T 5:1 [1]: 4.29 nM
- Mean EC50 of target cell lysis, 4 h calcein-release assay, MMP1-003-pulsed T2 cells, human NK-cells E:T 5:1 [2]: 0.0147 nM
- Kd [3]: 5.1 nM
B6: TandAbCD16A 1 (anti-HLA-A2^MMP1-003/CD16A tandem diabody, target domain A02, variant 2) (bispecific antibody)
chain: QVQLVQSGAEVKKPGESLKVSCKASGYTFTSYYMHWVRQAPGQGLEWMGAIEPMYGSTSYAQKFQGRVTMTRDTSTSTVYMELSSLRSEDTAVYYCARGSAYYYDFADYWGQGTLVTVSSGGSGGSGGSSYELTQPPSVSVSPGQTASITCSGDKLGDKYASWYQRKPGQSPVLLIYQDAKRPSGIPERFSGSNSGNTATLTISGTQAMDEADYYCQAWDSSTGVFGGGTKLTVLGGSGGSEVQLVESGGGVVQPGRSLRLSCAASGFTFSSYAMHWVRQAPGKGLEWVAVISYDGSNKYYADSVKGRFTISRDNSKNTLYLQMNSLRTEDTAVYYCARDGGYYHYGLDVWGQGTTVTVSSGGSGGSGGSSYVLTQPSSVSVAPGQTATISCGGHNIGSKNVHWYQQRPGQSPVLVIYQDNKRPSGIPERFSGSNSGNTATLTISGTQAMDEADYYCQVWDNYSVLFGGGTKLTVLAAAGSHHHHHH
notes: Non-covalent homodimer; Variant 2: VH(CD16A)-L1-VL(A02)-L2-VH(A02)-L3-VL(CD16A); C-terminal 6xHis tag

- binding result [12]: no binding
- binding result [13]: no binding
- Kd [11]: 616 nM
B7: scFv B05 (anti-HLA-A2^MMP1-003 single chain Fv) (scFv)
scFv: QVQLVQSGAEAKKPGESLRISCRASGYMFSTFWIGWVRQMPGKGLEWVASIYPGDSNTIYSPSFQGQVTISADKSINTTYLQWSGLKASDTATYYCAKIRDGYSYDAFDLWGQGTMVTVSSGGSGGSGGSGGSGGSGGSQSALTQPASVSGSPGQSITISCTGTSSDVGGYNYVSWYQQHPGKAPKLMIYDVSNRPSGVSNRFSGSKSGNTASLTISGLQAEDEADYYCSSYTSSSTLAYVFGTGTKLTVLAAAGSEQKLISEEDLNSHHHHHH
notes: also called B05 scFv; scFv_202.S
